The assay deals with recombinant gp120 (HIV (strain not stated)). Put plainly: SPR (BIAcore3000), gp120 immobilised on CM5. (Surface plasmon resonance follows binding to a sensor surface in real time, without labels.)

pKd: −log10 of the molar value.

One may read the pKd as the negative decadic logarithm of the Kd, by convention in mol/L. The term koff denotes the rate constant with which the complex falls apart. As usually defined, the kon is the rate constant with which the complex forms. For “2D (D1D2 domain of soluble CD4) (from UniProt P01730 26-210) (receptor)”, the Ka worked out at 4.8e+07 M⁻¹, the pKd was 7.68, the koff stood at 0.00047 s⁻¹ and the kon came to 22000 M⁻¹ s⁻¹.

For the origin of these results see patent publication US20110269676A1.
